In the supplement of paper PMC7125110:
± gives the standard error. Variants at the floor of the assay were thinned out.

B1: glmS ribozyme (parent)
chain: AUAAAAGCGCCAGAACUACAGAAAUGUAGUUGACGAGGAGGAGGUUUAUCGAAUUUUCGGCGGAUGCCUCCAAA

Experiments:
Conditions in all cases: with glucosamine-6-phosphate
glucosamine-6-phosphate [1] = variants of: B1; assay: self-cleavage kobs at 640 uM GlcN6P; higher = faster cleavage; RNA array
Summary of the method: (§1)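 Glucosamine-6-phosphate (40 μM to 10 mM) in HEPES/KCl/Mg(OAc)2 buffer was flowed over sequenced MiSeq chips, and tiles were imaged over ~14 h. Barcoded ribozyme variants there had been transcribed in situ by E. coli RNA polymerase and were tracked through a hybridised Cy3 probe at 37 °C. One- or two-exponential decay fits to per-tile medians, normalised to baseline and to non-cleaving reference variants, gave kobs. kcat and KM came from weighted Michaelis–Menten fits across concentrations.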

glucosamine-6-phosphate [2] = variants of: B1; assay: self-cleavage kobs at 2500 uM GlcN6P; higher = faster cleavage; RNA array
Summary of the method: as §1

glucosamine-6-phosphate [3] = variants of: B1; assay: self-cleavage kobs at 10000 uM GlcN6P; higher = faster cleavage; RNA array
Summary of the method: as §1

Variant | self-cleavage kobs at 640 uM GlcN6P (glucosamine-6-phosphate [1]) | self-cleavage kobs at 2500 uM GlcN6P (glucosamine-6-phosphate [2]) | self-cleavage kobs at 10000 uM GlcN6P (glucosamine-6-phosphate [3])
C8U G44U G60U | < 1e-05 s⁻¹ |  | 
G7C G32C G59A | < 1e-05 s⁻¹ |  | 
C19U U46A | 0.0011 ± 0.00031 s⁻¹ | 0.0021 ± 0.00075 s⁻¹ | 
G7U G43U U45A C58A | < 1e-05 s⁻¹ | < 1e-05 s⁻¹ | 
C8A U47C G51A | < 1e-05 s⁻¹ | < 1e-05 s⁻¹ | 
U45A U57G G62A | < 1e-05 s⁻¹ | < 1e-05 s⁻¹ | 
C8U U46G G51U G66U C70G C71U | < 1e-05 s⁻¹ |  | 
G32C A33G G35A C61A | < 1e-05 s⁻¹ |  | 
A6U G13U G29U C70G | 4.98e-05 ± 2.3e-05 s⁻¹ |  | 
C8U A12U A14U G44A C61U | < 1e-05 s⁻¹ | < 1e-05 s⁻¹ | 
C8U G44A U45C | < 1e-05 s⁻¹ | < 1e-05 s⁻¹ | 
U47A C50G C67U C71A | 0.000221 ± 0.00011 s⁻¹ |  | 0.000134 ± 2.8e-05 s⁻¹
U30C G35U C68U | < 1e-05 s⁻¹ | < 1e-05 s⁻¹ | 
C34U C50G U54A | 0.000235 ± 6.6e-05 s⁻¹ | 0.000344 ± 0.0001 s⁻¹ | 
G51A A53G C71A | < 1e-05 s⁻¹ |  | 
G32A U69A C70G | 4.23e-05 ± 1.9e-05 s⁻¹ |  | 
C8U G60A U65C | < 1e-05 s⁻¹ |  | 
G44U U47C C71U | < 1e-05 s⁻¹ | < 1e-05 s⁻¹ | 
G43A G44A C58U | < 1e-05 s⁻¹ |  | 
A6C G29C A36U G43U G66A | < 1e-05 s⁻¹ |  | 
G29A C58U C67G | 0.000115 ± 2.9e-05 s⁻¹ |  | 
C10U G32C G62U | < 1e-05 s⁻¹ | < 1e-05 s⁻¹ | 

Variant | self-cleavage kobs at 640 uM GlcN6P (glucosamine-6-phosphate [1]) | self-cleavage kobs at 2500 uM GlcN6P (glucosamine-6-phosphate [2]) | self-cleavage kobs at 10000 uM GlcN6P (glucosamine-6-phosphate [3])
G7U C34U A39C U69C | < 1e-05 s⁻¹ |  | 
G35A G51A U54A G63U | < 1e-05 s⁻¹ |  | 
A12U A42G C68U | 0.00273 ± 0.00096 s⁻¹ |  | 
C11G G29U A42C | < 1e-05 s⁻¹ | < 1e-05 s⁻¹ | 
G37C G60U U69A | < 1e-05 s⁻¹ | < 1e-05 s⁻¹ | 
C16G G59C C61U | < 1e-05 s⁻¹ | < 1e-05 s⁻¹ | 
A42G U54G U55G U65A C67A C71U | 0.000215 ± 3.1e-05 s⁻¹ | 8.43e-05 ± 2e-05 s⁻¹ | 
A14U A42C G51U | < 1e-05 s⁻¹ |  | 
C34G A48G C70U | < 1e-05 s⁻¹ |  | 
C16A U55G C58G U65G | < 1e-05 s⁻¹ |  | 
C11A G41A U49G G63U | < 1e-05 s⁻¹ | < 1e-05 s⁻¹ | 
C11G G37C C68U | 9.13e-05 ± 3.1e-05 s⁻¹ |  | 
C8G G32C G38C U54G | < 1e-05 s⁻¹ | < 1e-05 s⁻¹ | < 1e-05 s⁻¹
U46G C50G C71A | 8.98e-05 ± 3.3e-05 s⁻¹ |  | 
C8G U55G | < 1e-05 s⁻¹ | < 1e-05 s⁻¹ | 
G40A A52G C71A | 0.000146 ± 2.8e-05 s⁻¹ | 0.000203 ± 7.7e-05 s⁻¹ | 
A14C C34G A36C G59C | < 1e-05 s⁻¹ |  | 
G7U C11A C50G C70U | 0.000451 ± 0.00011 s⁻¹ | 0.000157 ± 3.1e-05 s⁻¹ | 0.00016 ± 3.1e-05 s⁻¹
A36C G40C | < 1e-05 s⁻¹ | < 1e-05 s⁻¹ | < 1e-05 s⁻¹
G32C G44U G51U A53U C58G | < 1e-05 s⁻¹ |  | 
U31A U69C C71G | 8.22e-05 ± 1.8e-05 s⁻¹ | 6.01e-05 ± 1.7e-05 s⁻¹ | 3.9e-05 ± 1.6e-05 s⁻¹
A12C C70G C71G | 5.18e-05 ± 2.5e-05 s⁻¹ | 4.37e-05 ± 1.9e-05 s⁻¹ | 

Variant | self-cleavage kobs at 640 uM GlcN6P (glucosamine-6-phosphate [1]) | self-cleavage kobs at 2500 uM GlcN6P (glucosamine-6-phosphate [2]) | self-cleavage kobs at 10000 uM GlcN6P (glucosamine-6-phosphate [3])
U31G G44U G62U | < 1e-05 s⁻¹ | < 1e-05 s⁻¹ | 
A36C U69A | 6.08e-05 ± 1.6e-05 s⁻¹ | 0.000182 ± 4.6e-05 s⁻¹ | 
G66U C68G C71A | 5.91e-05 ± 2.3e-05 s⁻¹ |  | 
A14U A36C G37A G38A | < 1e-05 s⁻¹ |  | 
G13C G59U C67A C71U | 5.98e-05 ± 2.4e-05 s⁻¹ |  | 
A36U A52G G62C C71A | < 1e-05 s⁻¹ |  | 
A52C A53U C67U C68U | 6.36e-05 ± 3e-05 s⁻¹ | 9.26e-05 ± 4.1e-05 s⁻¹ | 
A15U U30A C68A | 0.000134 ± 5.1e-05 s⁻¹ | 0.000121 ± 4.8e-05 s⁻¹ | 
G29C G51U C61G C70A | 9.9e-05 ± 3.7e-05 s⁻¹ | 7.11e-05 ± 2.2e-05 s⁻¹ | 
C8A G40A A42U G62C | < 1e-05 s⁻¹ |  | 
U30G G40C A53G G62C | < 1e-05 s⁻¹ |  | 
G26U G32U | 0.000131 ± 4.5e-05 s⁻¹ | 0.000943 ± 0.00021 s⁻¹ | 
A33U A39C A48U G59U | < 1e-05 s⁻¹ |  | 
G13A A39G A52C | < 1e-05 s⁻¹ |  | 
A12U C16U A33C | 0.000251 ± 4.5e-05 s⁻¹ | 0.000381 ± 7.2e-05 s⁻¹ | 
U47C C67A | 0.000623 ± 0.00018 s⁻¹ | 0.000286 ± 9.8e-05 s⁻¹ | 0.000244 ± 8e-05 s⁻¹
A33C U45G U55C | < 1e-05 s⁻¹ |  | 
A39G U49A G60U | < 1e-05 s⁻¹ | < 1e-05 s⁻¹ | 
G7U A15U G44C | < 1e-05 s⁻¹ | < 1e-05 s⁻¹ | 
C11G U49A C71G | 8.96e-05 ± 3.1e-05 s⁻¹ |  | 
G38A A42C A64G | < 1e-05 s⁻¹ | < 1e-05 s⁻¹ | 
C50G U54C G60C C61G | 0.000234 ± 5.5e-05 s⁻¹ | 8.41e-05 ± 2.8e-05 s⁻¹ | 
